In patent publication US20210347900A1:

Legend:
[1] = molecular target: human LOX1 on cells (human LOX1 transfected CHO TREX cells) (human) (UniProt P78380); experiment: cell-based or functional assay
[2] = molecular target: human LOX1 on cells (human LOX1 transfected CHO TREX cells) (human) (UniProt P78380); experiment: competition with DyLight 649 oxLDL on human LOX1 CHO TREX cells, FMAT
[3] = molecular target: human LOX1 on cells (human LOX1 transfected CHO TREX cells) (human) (UniProt P78380); experiment: competition with DyLight 649 AGE-BSA on human LOX1 CHO TREX cells, FMAT
[4] = molecular target: recombinant human LOX1 (R&D Systems) (human) (UniProt P78380); experiment: competition with biotin CRP on plate-bound recombinant human LOX1, DELFIA

**Q.** “23C11, commercially available mouse anti-LOX-1 antibody” was tested. Which IC50 of inhibition of Cypher 5E oxLDL internalization in hLOX1 CHO TREX cells (row label not given; assay assigned by block order of Table 5) [1] did it give?
**A.** Its IC50 of inhibition of Cypher 5E oxLDL internalization in hLOX1 CHO TREX cells (row label not given; assay assigned by block order of Table 5) is 2.85 nM.

**Q.** And the IC50 of inhibition of oxLDL-dependent ROS generation in hLOX1 CHO TREX cells (row label not given; assay assigned by block order of Table 5) [1]?
**A.** Its IC50 of inhibition of oxLDL-dependent ROS generation in hLOX1 CHO TREX cells (row label not given; assay assigned by block order of Table 5) is 10.1 nM.

**Q.** And the IC50 (read off the curve) [2]?
**A.** The IC50 (read off the curve) was 3 nM.

**Q.** And the IC50 (read off the curve) [3]?
**A.** Its IC50 (read off the curve) is 2 nM.

**Q.** What about the IC50 (read off the curve) [4] of the same substance?
**A.** The IC50 (read off the curve) was 10 nM.
